Reference: patent US6365126

B1: Drosophila NF1 catalytic domain (amino acids 1,235-1,614) bacterial fusion protein (protein)
chain: TEFDTLAETVLADRFEQLVQLVTMISDKGELPIAMALANVVTTSQMDELARVLVTLFDAKHLLSPLLWNMFYREVEVSDCMQTLFRGNSLGSKIMAFCFKIYGASYLQMLLEPLIRPLLDEEEETCFEVDPARLDPTEDIEQHRNNLIALTQKVFDAIINSSDRFPPQLRSMCHCLYQVLSKRFPNLLQNNIGAVGTVIFLRFINPAIVSPQELGIVDKQVHSSAKRGLMLMSKILQNIANHVEFSKEQHMLCFNDFLRDHFEAGRRFFIQIASDCETVDQTSHSMSFISDANVLALHRLLWTHQEKIGDYLSSSRDHKAVGRRPFDKMATLLAYLGPPEHKPVDSHMMFSSYARWSSIDMSSTNFEEIMVKHQMHEKEE
B2: human p120GAP catalytic domain fusion protein (protein)
chain: MEKIMPEEEYSEFKELILQKELHVVYALSHVCGQDRTLLASILLRIFLHEKLESLLLCTLNDREISMEDEATTLFRATTLASTLMEQYMKATATQFVHHALKDSILKIMESKQSCELSPSKLEKNEDVNTNLTHLLNILSELVEKIFMASEILPPTLRYIYGCLQKSVQHKWPTNTTMRTRVVSGFVFLRLICPAILNPRMFNIISDSPSPIAARTLILVAKSVQNLANLVEFGAKEPYMEGVNPFIKSNKHRMIMFLDELGNVPELPDTTEHSRTDLSRDLAALHEICVAHSDELRTLSNERGAQQHVLKKLLAITELLQQKQNQYTKTNDVR

Target: H-Ras, P01112
Sequence (P01112 whole entry, looked up): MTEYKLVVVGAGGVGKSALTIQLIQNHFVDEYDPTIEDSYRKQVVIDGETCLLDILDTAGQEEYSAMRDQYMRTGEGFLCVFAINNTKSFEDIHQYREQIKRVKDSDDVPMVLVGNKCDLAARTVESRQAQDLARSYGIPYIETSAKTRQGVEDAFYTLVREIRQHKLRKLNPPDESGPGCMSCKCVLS

Protein | GTPase activity of H-Ras (GAP assay)
B1 | All three fusion proteins stimulated the GTPase activity of H-Ras
B2 | All three fusion proteins stimulated the GTPase activity of H-Ras
